# Residue numbers refer to the chain shown, from its start.
# T1: recombinant human IL-23R/Fc chimera (R&D Systems) (human, UniProt Q5VWK5 24-355)
# T1 construct: Bought; also called rhIL23RFc
# T1 sequence (looked up): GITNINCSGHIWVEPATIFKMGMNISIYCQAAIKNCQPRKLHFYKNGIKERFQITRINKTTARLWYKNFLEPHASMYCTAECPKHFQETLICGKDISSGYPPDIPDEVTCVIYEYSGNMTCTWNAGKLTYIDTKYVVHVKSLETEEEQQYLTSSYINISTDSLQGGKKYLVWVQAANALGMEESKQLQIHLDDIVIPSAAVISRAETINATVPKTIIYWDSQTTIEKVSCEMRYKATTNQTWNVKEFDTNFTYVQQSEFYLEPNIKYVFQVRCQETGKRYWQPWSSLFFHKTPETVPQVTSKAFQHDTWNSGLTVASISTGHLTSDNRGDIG
# B1: 105-08-1B1 ATRIMER complex (designed binder)
# chain: EPPTQKPKKIVNAKKDVVNTKMFEELKSRLDTLAQEVALLKEQQALQTVCLKGTKVHMKCFLAFTQTKTFHEASEDCISRGGTLSTPQTGSENDALYEYLRQSVGNEAEIWLGLNGSPRTQTWVDMTGARIAYKNWETEITAQPDGGFGYFGENCAVLSGAANGKWFDKRCRDQLPYICQFGIV
# modifications: ATRIMER complex: homotrimer of three copies of this chain, joined by the tetranectin coiled coil
# notes: not shown: C-terminal tag: Myc/His (pANA4) or HA-StrepII (pANA10)
# B2: 105-08-1B7 ATRIMER complex (designed binder)
# chain: B1 chain with Q121D
# B3: 105-08-1B10 ATRIMER complex (designed binder)
# chain: B1 chain with P118R, R119H, Q121D
# notes: not shown: C-terminal tag: His/Myc (pANA4) or HA-StrepII (pANA10)
# B4: 105-08-1C2 ATRIMER complex (designed binder)
# chain: B1 chain with P118R, R119A, Q121D
# B5: 105-08-1C3 ATRIMER complex (designed binder)
# chain: B1 chain with P118Q, R119L, Q121D, F148W
# B6: 105-08-1C4 ATRIMER complex (designed binder, not shown: small tags and cut ends)
# chain: B1 chain with P118T, R119L, Q121D, F148W
# B7: 105-08-1C6 ATRIMER complex (designed binder)
# chain: B1 chain with P118A, R119L, Q121D
# B8: 105-08-1C9 ATRIMER complex (designed binder)
# chain: B1 chain with P118T, R119L, Q121D
# B9: 105-08-1C10 ATRIMER complex (designed binder)
# chain: B1 chain with P118S, R119V, Q121N, F148W
# B10: 105-08-1C11 ATRIMER complex (designed binder)
# chain: B1 chain with P118S, Q121D
# modifications: ATRIMER complex: homotrimer of three copies of this chain, joined by the tetranectin coiled coil
# notes: as for B1
# B11: 105-08-1D1 ATRIMER complex (designed binder, not shown: small tags and cut ends)
# chain: B1 chain with P118A, R119L, Q121D, F148W
# B12: 105-08-1D2 ATRIMER complex (designed binder)
# chain: B1 chain with R119V, Q121D
# notes: as for B3
# B13: 105-08-1D10 ATRIMER complex (designed binder)
# chain: B1 chain with P118A, Q121G, F148W
# B14: 105-08-1D12 ATRIMER complex (designed binder)
# chain: B1 chain with P118V, R119L, Q121D
# notes: as for B3
# B15: 105-08-1G2 ATRIMER complex (designed binder)
# chain: B1 chain with P118S, R119K, Q121N, F148W
# B16: 105-08-1G9 ATRIMER complex (designed binder)
# chain: B1 chain with R119K, Q121D
# B17: 105-08-1G12 ATRIMER complex (designed binder)
# chain: B1 chain with P118L, Q121G, F148W
# modifications: Homotrimer (ATRIMER complex) of the one chain given.
# B18: 105-08-2A1 ATRIMER complex (designed binder)
# chain: B1 chain with P118M, Q121D, F148W
# B19: 105-08-2B3 ATRIMER complex (designed binder, not shown: small tags and cut ends)
# chain: B1 chain with P118A, R119I, Q121N, F148W
# B20: 105-08-2C1 ATRIMER complex (designed binder, not shown: small tags and cut ends)
# chain: B1 chain with P118S, R119L, Q121D, F148W
# B21: 105-08-2C4 ATRIMER complex (designed binder)
# chain: B1 chain with P118L, R119L, Q121N
# modifications: ATRIMER complex: homotrimer of three copies of this chain, joined by the tetranectin coiled coil
# notes: as for B1
# B22: 105-08-2C6 ATRIMER complex (designed binder)
# chain: B1 chain with P118Q, Q121D, F148W
# Biological target: T1, recombinant human IL-23R/Fc chimera …
# Experiment: competition ELISA vs IL-23
# Experimental: Assays were performed generally as follows. Individual wells in Immulon HB2 plates were incubated overnight at 4° C. with 100 μL PBS containing 100 ng of an anti-human IgG Fc (R&D MAB 110 clone 97924). Plates were washed five times with PBS/0.05% Tween 20, and wells were incubated for 1.5 h at RT with 100 μL each of PBS containing 50 ng of recombinant human IL-23R/Fc. […] Competitor was included at a final concentration of 1 μg/mL. After incubation, plates were washed as described and wells were incubated for 40 min at RT with 100 μL each of PBS containing a 1:5000 dilution of streptavidin-HRP conjugate (Pierce catalog no. 21130). After washing, wells were incubated with 100 μL each of TMB (BioFX Lab catalog no. TMBH-1000-0) for up to 30 min at RT. Reactions were stopped with an equal volume of 0.2 M sulfuric acid.
row,Binder,Ratio IC50 to 056-53.H4E IC50
1,B1,3.3
2,B2,4.1
3,B3,4.7
4,B4,4.1
5,B5,3.6
6,B6,3.3
7,B7,2
8,B8,7.4
9,B9,5
10,B10,2.8
11,B11,3.6
12,B12,4.3
13,B13,5.5
14,B14,4.6
15,B15,5.5
16,B16,2.4
17,B17,13.2
18,B18,5
19,B19,3.4
20,B20,3.6
21,B21,2.9
22,B22,3.6

# From patent US20110086806A1 (published 2011)
